Experimental data taken from paper PMC3706390.

Assays:
L30 K87A = L30 K87A (rat, UniProt P62890 1-115, K87A); test: EMSA; little effect vs WT; 30 mM Tris-HCl pH 8.0, 75 mM KCl, 5 mM MgCl2, 1 mM DTT, 0.04 ug/uL BSA, 10% glycerol, 50 ng/uL yeast tRNA, 30 C 15 min; EMSA gels 0.5X TBE at 4 C; RNase digesti
L30 L35A = L30 L35A (rat, UniProt P62890 1-115, L35A); test: EMSA; reduced by 14%, significant; 30 mM Tris-HCl pH 8.0, 75 mM KCl, 5 mM MgCl2, 1 mM DTT, 0.04 ug/uL BSA, 10% glycerol, 50 ng/uL yeast tRNA, 30 C 15 min; EMSA gels 0.5X TBE at 4 C; RNase digesti
L30 E110A = L30 E110A (rat, UniProt P62890 1-115, E110A); test: EMSA; comparable to WT; 30 mM Tris-HCl pH 8.0, 75 mM KCl, 5 mM MgCl2, 1 mM DTT, 0.04 ug/uL BSA, 10% glycerol, 50 ng/uL yeast tRNA, 30 C 15 min; EMSA gels 0.5X TBE at 4 C; RNase digesti
L30 V91A = L30 V91A (rat, UniProt P62890 1-115, V91A); test: as above
L30 M108A = L30 M108A (rat, UniProt P62890 1-115, M108A); test: as above
L30 L29A = L30 L29A (rat, UniProt P62890 1-115, L29A); test: as above
L30 Y89A = L30 Y89A (rat, UniProt P62890 1-115, Y89A); test: EMSA; L30 at 50% WT binding; 30 mM Tris-HCl pH 8.0, 75 mM KCl, 5 mM MgCl2, 1 mM DTT, 0.04 ug/uL BSA, 10% glycerol, 50 ng/uL yeast tRNA, 30 C 15 min; EMSA gels 0.5X TBE at 4 C; RNase digesti
L30 K36A = L30 K36A (rat, UniProt P62890 1-115, K36A); test: EMSA; reduced by 60%; 30 mM Tris-HCl pH 8.0, 75 mM KCl, 5 mM MgCl2, 1 mM DTT, 0.04 ug/uL BSA, 10% glycerol, 50 ng/uL yeast tRNA, 30 C 15 min; EMSA gels 0.5X TBE at 4 C; RNase digesti

Binder: GGGACCGGAGUGUCGCAAGACGCAGAGAUGGUCC (structured_RNA) [L30 RNA (stem-loop of L30 pre-mRNA)]
- binding result (L30 K87A): binds
- binding signal (L30 L35A): 86 % of WT binding
- binding result (L30 E110A): binds
- binding result (L30 V91A): binds
- binding result (L30 M108A): binds
- binding result (L30 L29A): binds
- binding signal (L30 Y89A): 37 % of WT binding
- binding signal (L30 K36A): 40 % of WT binding
